In article PMC12187637:

How the values were obtained:
[1] = biological target: GFP-tagged ADP-ribosylation-deficient NuMA, NuMA^PARmut construct (UniProt Q14980); test: co-IP; GFP-trap magnetic beads on whole-cell extracts (NP-40 lysis buffer with BaseMuncher endonuclease and ADP-HPD) of cells transfected with GFP-NuMA and co-transfected with myc-TDP1, untreated or treated with 10 uM H2O2 for 10 min on ice in the dark; 2 h at 4°C; immunoblot; three biological replicates
[2] = biological target: GFP-tagged ADP-ribosylation-deficient NuMA, NuMA^PARmut construct (UniProt Q14980); test: co-IP; GFP-trap magnetic beads on the chromatin fraction of cells co-transfected with myc-TDP1 and treated with 10 uM H2O2 for 10 min on ice in the dark; immunoblot; three biological replicates

Sequence of UniProt Q14980 (Q14980 other isoform, or with tags, fused parts or gaps, change not shown): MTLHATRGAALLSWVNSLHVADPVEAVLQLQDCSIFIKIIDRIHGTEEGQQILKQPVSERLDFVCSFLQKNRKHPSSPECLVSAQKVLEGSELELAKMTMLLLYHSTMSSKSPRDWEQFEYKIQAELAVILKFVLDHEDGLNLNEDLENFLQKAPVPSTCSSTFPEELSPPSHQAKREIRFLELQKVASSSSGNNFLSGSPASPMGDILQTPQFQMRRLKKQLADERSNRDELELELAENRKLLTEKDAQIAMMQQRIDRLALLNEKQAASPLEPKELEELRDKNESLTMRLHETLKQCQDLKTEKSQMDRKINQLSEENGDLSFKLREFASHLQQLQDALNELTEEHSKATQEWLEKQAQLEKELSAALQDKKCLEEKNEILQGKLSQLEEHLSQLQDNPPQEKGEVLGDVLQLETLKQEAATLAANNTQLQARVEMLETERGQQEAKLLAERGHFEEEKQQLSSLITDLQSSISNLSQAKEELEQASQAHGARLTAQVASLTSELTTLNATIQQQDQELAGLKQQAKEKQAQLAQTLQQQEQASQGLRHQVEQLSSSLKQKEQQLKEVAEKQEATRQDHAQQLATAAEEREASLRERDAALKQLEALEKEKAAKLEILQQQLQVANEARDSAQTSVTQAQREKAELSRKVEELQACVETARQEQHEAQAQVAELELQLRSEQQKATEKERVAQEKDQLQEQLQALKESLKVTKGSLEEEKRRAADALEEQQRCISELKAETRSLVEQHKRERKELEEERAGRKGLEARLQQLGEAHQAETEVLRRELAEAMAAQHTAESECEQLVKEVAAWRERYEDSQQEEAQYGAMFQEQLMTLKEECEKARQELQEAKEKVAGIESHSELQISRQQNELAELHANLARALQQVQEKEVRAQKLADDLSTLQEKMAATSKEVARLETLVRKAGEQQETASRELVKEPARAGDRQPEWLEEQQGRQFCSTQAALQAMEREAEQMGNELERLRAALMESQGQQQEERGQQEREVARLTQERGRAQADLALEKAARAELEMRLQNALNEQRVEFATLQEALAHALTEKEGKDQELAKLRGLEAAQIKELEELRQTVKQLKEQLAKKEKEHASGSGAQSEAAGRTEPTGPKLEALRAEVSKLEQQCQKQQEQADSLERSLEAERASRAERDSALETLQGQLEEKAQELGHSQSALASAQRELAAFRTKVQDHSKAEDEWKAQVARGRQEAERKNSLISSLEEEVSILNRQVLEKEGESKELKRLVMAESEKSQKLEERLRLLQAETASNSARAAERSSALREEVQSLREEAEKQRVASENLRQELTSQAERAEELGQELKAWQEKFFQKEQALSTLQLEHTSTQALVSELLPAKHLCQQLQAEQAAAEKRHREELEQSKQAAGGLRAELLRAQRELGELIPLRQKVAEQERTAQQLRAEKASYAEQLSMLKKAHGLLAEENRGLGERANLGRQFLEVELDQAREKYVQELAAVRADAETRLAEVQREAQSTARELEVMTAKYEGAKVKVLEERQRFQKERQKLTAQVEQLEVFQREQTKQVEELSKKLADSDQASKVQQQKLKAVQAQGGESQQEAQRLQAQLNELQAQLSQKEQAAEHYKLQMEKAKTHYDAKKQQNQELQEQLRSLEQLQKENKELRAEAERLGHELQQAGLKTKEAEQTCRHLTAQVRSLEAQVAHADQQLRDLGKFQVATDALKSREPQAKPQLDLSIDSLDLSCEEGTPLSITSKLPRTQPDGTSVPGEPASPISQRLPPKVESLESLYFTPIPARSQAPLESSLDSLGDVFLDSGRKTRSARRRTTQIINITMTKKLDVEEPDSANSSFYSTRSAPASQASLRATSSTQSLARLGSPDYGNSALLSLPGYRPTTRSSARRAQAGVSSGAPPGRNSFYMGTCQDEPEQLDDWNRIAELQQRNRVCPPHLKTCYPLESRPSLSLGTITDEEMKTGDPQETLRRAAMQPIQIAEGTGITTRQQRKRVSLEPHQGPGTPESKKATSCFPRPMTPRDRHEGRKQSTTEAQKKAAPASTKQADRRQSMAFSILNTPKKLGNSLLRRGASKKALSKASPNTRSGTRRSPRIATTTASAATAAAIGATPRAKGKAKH

Q: What does the source list for “myc-TDP1 (tyrosyl DNA phosphodiesterase 1) (from UniProt Q9NUW8 1-608) (enzyme)”?
A: percent decrease in interaction relative to NuMA^WT (H2O2-treated cells) [1]: 38 to 45%; percent decrease in interaction relative to NuMA^WT (untreated cells) [1]: 38 to 45%; percent lower interaction than with NuMA^WT (chromatin fraction, H2O2-treated cells) [2]: 50%
